Laboratory results taken from PMC9253517 (The Journal of Experimental Medicine, 2022).
Positions count from the first letter of the chain named.

B1: JR171 (antibody, V domains shown)
VH: QVQLVQSGAEVKKPGASVKVSCKASGYTFTSYYMHWVRQAPGQGLEWMGIINPSGGSTSYAQKFQGRVTMTRDTSTSTVYMELSSLRSEDTAVYYCARAYDSAPGFDYWGQGTLVTVSS
VL: DIQLTQSPSFLSASVGDRVTITCRASQGISSYLAWYQQKPGKAPKLLIYAASTLQSGVPSRFSGSGSGTEFTLTISSLQPEDFATYYCQQLNSYPSITFGQGTRLEIK
B2: JR062 (antibody, V domains shown)
VH: EVQLVESGGGLIQPGGSLRLSCAASGFSVSNNYMNWVRQAPGKGLEWLSVIYNAGTTYYAGSVKGRFTISKDNSKNTLYLQLNSLRPEDTAVYYCARGHTGVAALMTGAFDIWGQGTMVTVSS
VL: QSALTQPPSASGSPGQSVTISCTGTSSDVGGYDYVSWYQQYPGKAPKLMIYEVSKRPSGVPDRFSGSKSGNTASLTVSGLQAEDEADYYCSSYAGNNNWVFGGGTKLTVL
B3: JR070 (antibody, V domains shown)
VH: QLVQSGPEVKKPGTSVKVSCKASGFTFSSSAMQWVRQARGQGLEWIGWIVVGSGNTNYAQKFQERVTISRDMSTSTAYMEVSSLTSEDAAVYYCAAPNCSRTTCSDGFDIWGQGTMVTVSS
VL: EIVLTQSPGTLSLSPGERATLSCRASQSVRSSYLAWYQQKPGQAPRLLIYGASSRATGIPDRFSGSGSGTDFTVTISRLEPEDFAVYYCQQYGNSPWTFGQGTKVEIK
B4: JR170 (antibody, V domains shown)
VH: QVQLVQSGAEVRKPGASVKVSCKASRYTFTNNYIHWVRQAPGQGLEWMGIINPSGGSTTYAQKFQGRVTMTGDTSTSTVYMELSSLRSEDTAVYYCARGGFVPAATSYFDYWGQGTLVTVS
VL: QSALTQPRSVSGSPGQSVTISCTGTSSDVGGYNYVSWYQQHPGKAPKLMIYDVSKRPSGVPDRFSGSKSGNTASLTISGLQAEDEADYYCCSYAGSYTLVFGGGTKLTVL
B5: JR211 (antibody, V domains shown)
VH: QVQLQESGPGLVKPSGTLSLTCAVSGGSISSSHWWNWVRQPPGKGLEWIGEIYHSGSTNYSPSLKSRVTISVDKSKNQFSLKLSSVTAADTAVYYCAKSMRAGPNDGFDYWGQGTLVTVSS
VL: B4 VL with R8A, V18I, K55N, P61S, D62N, C91S, A94T, G95S, Y97S, L99V
B6: JR095 (antibody, V domains shown)
VH: VQLVESGGGVVQPGRSLRLSCAASGFTFSRYAMHWVRQAPGKGLQWVAIISYDGSNKYYADSVKGRFTISRDNSKNTLYLQMNSLRAEDTAVYYCARHITGTDYWGQGTLVTVSS
VL: DIQMTQSPSSLSASVGDRVTITCRASQGISIYLAWFQQKPGKAPKSLIYAASNLQSGVPSKFSGSGSGTDFTLTISSLQPEDFATYYCQQYDSYPITFGQGTRLEIK
B7: JR097 (antibody, V domains shown)
VH: QVQLVQSGAEVKKPGASVKVSCKTSAYTFTTYFMHWVRQAPGQGLEWMGIINPSGGSTRYAQKFQGRVTMTRDTSTSTVYMELSGLRSEDTAVYYCARERRPGFYDSSGYSFDYWGQGTLVTVSS
VL: SYELTQPPSVSVAPGKTARITCGGNNIGSKSVHWYQQKPGQAPVLVVYDDSDRPSGIPERFSGSNSGNTATLTISRVEAGDEADYYCQVWDSSSDPVVFGGGTKLTVL
B8: JR179 (antibody, V domains shown)
VH: QVQLVQSGAEVKKPGASVKVSCKASGYTFSSFAISWVRQAPGQGLEWMGWISAYNGNTNYAQNLQGRVTMTTDTSTSTVYMELRSLRSDDTAVYYCAREAGLTGNLDYWGQGTLVTVSS
VL: SYELTQPPSVSVAPGQTARITCGGNNIGSKNVHWYQQKPGQAPVVVVYDDSDRPSGIPERFSGSNSGNTATLTISRVEAGDEADYYCQVWDSRSYHHVVFGGGTKLTVL
B9: JR311 (antibody, V domains shown)
VH: QVQLVQSGAEVKKPGASVKVSCKTSGYTFTNYFVHWVRQAPGQGLEWMGWINPNSGGTNYAQTFQAWVTMTRDTSINTAYMELSRLTSDDTAVYYCARDLSFSIVRGVMGYWGQGTLVTVSS
VL: not shown
B10: JR308 (antibody, V domains shown)
VH: QVQLVESGGGVVQPGRSLRLSCAASGFTFSSYGMHWVRQAPGKGLEWVAVISYDGSNKYYADSLKGRFTISRDNSKNTLYLQMNSLRAEDTAVYYCAKEGRGTYYYGSGSCPGGYWGQGTLVTVSS
VL: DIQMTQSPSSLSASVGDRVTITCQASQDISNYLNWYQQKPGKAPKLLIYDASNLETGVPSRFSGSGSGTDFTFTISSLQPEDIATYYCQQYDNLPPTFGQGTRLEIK
B11: JR094 (antibody, V domains shown)
VH: EVQLVQSGAEVKKPGESLKISCKGSGYSFIFYWIGWVRQMPGKGLEWMGIIYPGDSDTRYSPSFQGQVTISADKSISTAYLQWSSLKASDTAMYYCASTVTRSPYDAFDMWGQGTMVTVSS
VL: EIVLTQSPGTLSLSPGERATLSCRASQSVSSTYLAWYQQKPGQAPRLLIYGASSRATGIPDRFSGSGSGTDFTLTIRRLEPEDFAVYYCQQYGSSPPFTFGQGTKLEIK
B12: JR081 (antibody, V domains shown)
VH: QVQLVQSGAEVKKPGASVKVSCKASGYIFTAYYMHWVRQAPGQGLEWMGWINPMSGATNYAQRFQGRVTMTRVTMTRDTSITTAYMELSRLRSDDTAVYYCARVNHIVGVTSSDPVYGMDVWGQGTTVTVSS
VL: QSALTQPASVSGSPGQSITISCTGTSSDVGGYKYVSWYQQHPGKAPKLMIYEVSNRPSGVSSRFSGSKSGYTASLTISGLQAEDEADYYCSSYTNSPTLFYVFGTGTKVTVL
B13: JR172 (antibody, V domains shown)
VH: EVQLVESGGGLVQPGRSLRLSCAASGFTFDDYAMHWVRQTPGKGLEWVSSISWNSGSIGYADSVKGRFTISRDNAKNSLYLQMNSLRAEDTALYYCAKDKRIDYSNYGGGFDHWGQGTLVTVSS
VL: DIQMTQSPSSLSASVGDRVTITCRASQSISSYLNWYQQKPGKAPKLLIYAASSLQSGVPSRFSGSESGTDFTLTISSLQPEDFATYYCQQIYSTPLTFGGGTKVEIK
B14: JR307 (antibody, V domains shown)
VH: EVQLVESGGGLVQPGGSLRLSCEVSGFTFSNYWMHWVRQAPGKGLVWVSRVDSDGNSTTYADSVNGRFTISRDNAKNTLYLQMKSLRAEDTAIYYCTRDCENCRHWYFDLWGRGTLVTVS
VL: SYELTQPPSVSVTPGQTARIACGGNNIGTKGVHWYQQRPGQAPVLVVYDDENRPSGIPERFSGSNSGDTATLIITWVEAGDEADYYCQVWHGLSDHPVFGGGTRLTVL
B15: JR235 (antibody, V domains shown)
VH: EVQLVESGGGLVQPGRSLRLSCAASGFTFDDYAMHWVRQAPGKGLEWVSGISWNSGRIDYADSVKGRFTISRDNAKNSLYLQMNSLRAEDTALYYCAKVSTVTTYLMGYFDLWGRGTLVTVSS
VL: EIVMTQSPATLSVSPGERATLSCRASQSVSSNLAWFQQKPGQAPRLLIYGASTRATGIPARFSGSGSGTEFILTISSLQSEDFAVYYCQLYSYWPPESSFGQGTKLEIK

Tests used:
[1] = molecular target: T1, SARS-CoV-2 Wuhan-Hu-1 RBD (SARS-CoV-2, Wuhan-Hu-1 (GenBank …, UniProt P0DTC2)); assay: BLI; details: both partners purified
[2] = molecular target: T1, SARS-CoV-2 Wuhan-Hu-1 RBD; assay: cell-based or functional assay

Binder	binding result [1]	neutralisation IC50, Wuhan-Hu-1 pseudovirus [2] [mg/L]
B1	binds	> 1
B2	binds	0.0029
B3	binds	0.00193
B4	binds	> 1
B5	binds	> 1
B6	binds	> 1
B7	binds	> 1
B8	binds	> 1
B9	binds	> 1
B10	binds	> 1
B11	binds	> 1
B12	binds	0.00347
B13	binds	> 1
B14	binds	> 1
B15	binds	> 1
